Test results reported in patent US7204989 (YANG SHENG TANG, dated 2007).

Molecular target: the molecule itself
Assay: SDS-PAGE of thrombin-released pE2; self-association into a homodimer
Experimental: In addition, samples of the GE2 and pE2 peptides were heated at 100° C. for 3 minutes for subsequent analysis (Lanes 2 and 4) by SDS PAGE (A) and Western blotting (B and C). The molecular weight of these products were compared with markers (Lane 6)
The purified preparations of GE2 and pE2 were characterized by SDS PAGE and Western blotting techniques (FIG. 7). […] In addition, samples of the GE2 and pE2 peptides were heated at 100° C. for 3 minutes for subsequent analysis (Lanes 2 and 4) by SDS PAGE (A) and Western blotting (B and C).

B1: pE2 peptide, monomeric form (23 kD) (other)
chain: QLFYSRPVVSANGEPTVKLYTSVENAQQDKGIAIPHDIDLGESRVVIQDYDNQHEQDRPTPSPAPSRPFSVLRANDVLWLSLTAAEYDQSTYGSSTGPVYVSDSVTLVNVATGAQAVARSLDWTKVTLDGRPLSTIQQYSKTFFVLPLRGKLSFWEAGTTKAGYPYNYNTTASDQLLVENAAGHRVAISTYTTSLGAGPVSISAVAVLAPPPR
notes: Monomer obtained by dissociating the dimer; Also used for the self-association rows; also called pE2 monomer; heated pE2
binding result: binds
